These are literature values, as cited in publication PMC11949069.

A word on the Kd: it is the constant that tells how readily two partners part at equilibrium.

This series addresses IL-18BPa (Homo sapiens) (UniProt O95998).

IL-18, sequence (Q14116 37-193): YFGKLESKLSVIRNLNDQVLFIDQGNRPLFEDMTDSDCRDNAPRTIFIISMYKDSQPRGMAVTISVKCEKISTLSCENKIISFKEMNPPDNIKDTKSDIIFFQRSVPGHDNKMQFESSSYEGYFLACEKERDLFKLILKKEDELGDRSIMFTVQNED
IL-18BPa (Homo sapiens), sequence (O95998 31-194): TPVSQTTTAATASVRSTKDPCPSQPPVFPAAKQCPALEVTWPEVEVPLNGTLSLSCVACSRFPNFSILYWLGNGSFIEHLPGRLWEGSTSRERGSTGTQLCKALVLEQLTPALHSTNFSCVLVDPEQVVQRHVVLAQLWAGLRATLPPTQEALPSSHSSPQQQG

Regarding IL-18 (from UniProt Q14116), the Kd was 0.4 nM.
